Source: publication PMC4407904, “Increased Expression of the Large Conductance, Calcium-Activated K^+ (BK) Channel in Adult-Onset Neuronal Ceroid Lipofuscinosis” (PLoS ONE, 2015)

Molecular target: the molecule itself
Experiment: SDS-PAGE and immunoblot of detergent-resistant oligomers; soluble CAD cell lysates (1% Triton X-100, 0.1% SDS lysis buffer) 24-72 h after transient transfection; blots with anti-myc, anti-flag or anti-CSPα

B1: myc-tagged wild type cysteine string protein (CSPα) (natural protein, UniProt P60905 1-198, looked up)
chain: MADQRQRSLSTSGESLYHVLGLDKNATSDDIKKSYRKLALKYHPDKNPDNPEAADKFKEINNAHAILTDATKRNIYDKYGSLGLYVAEQFGEENVNTYFVLSSWWAKALFVVCGLLTCCYCCCCLCCCFNCCCGKCKPKAPEGEETEFYVSPEDLEAQLQSDEREATDTPIVIQPASATETTQLTADSHPSYHTDGFN
notes: Cysteine string protein alpha (CSPα, DnaJC5), wild type; Seen on blots as an unpalmitoylated 26 kDa species, a palmitoylated 35 kDa monomer and a 70 kDa dimer; rat cDNA is surmised; also called WTCSPα; myc-CSPα; source: CAD cells, transiently transfected, in lysate
stoichiometry N: 2
